From FireProtDB (doi:10.1021/bi00200a042) come the findings set out here.

Chain of Cytochrome c isoform 1 R44A|C108A, P00044 R44A C108A (P00044 whole entry R44A/C108A, canonical isoform): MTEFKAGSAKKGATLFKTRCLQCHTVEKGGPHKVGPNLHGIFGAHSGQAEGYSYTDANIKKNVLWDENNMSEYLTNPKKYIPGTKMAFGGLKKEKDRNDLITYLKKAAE
Chain of Cytochrome c isoform 1 R44A|N58I|C108A, P00044 R44A N58I C108A (P00044 whole entry R44A/N58I/C108A, canonical isoform): as the sequence (P00044 whole entry R44A/C108A, canonical isoform) above, with N58I counted along it
Chain of Cytochrome c isoform 1 N58I|F88S|C108A, P00044 N58I F88S C108A (P00044 whole entry N58I/F88S/C108A, canonical isoform): as the sequence (P00044 whole entry R44A/C108A, canonical isoform) above, with A44R, N58I, F88S counted along it
Chain of Cytochrome c isoform 1 C108A, P00044 (P00044 whole entry C108A, canonical isoform): as the sequence (P00044 whole entry R44A/C108A, canonical isoform) above, with A44R counted along it
Chain of Cytochrome c isoform 1 N58I|C108A, P00044 N58I C108A (P00044 whole entry N58I/C108A, canonical isoform): as the sequence (P00044 whole entry R44A/C108A, canonical isoform) above, with A44R, N58I counted along it
Chain of Cytochrome c isoform 1 R44A|N58I|F88S|C108A, P00044 R44A N58I F88S C108A (P00044 whole entry R44A/N58I/F88S/C108A, canonical isoform): as the sequence (P00044 whole entry R44A/C108A, canonical isoform) above, with N58I, F88S counted along it
Chain of Cytochrome c isoform 1 F88S|C108A, P00044 F88S C108A (P00044 whole entry F88S/C108A, canonical isoform): as the sequence (P00044 whole entry R44A/C108A, canonical isoform) above, with A44R, F88S counted along it

For this series the following is noted: Saccharomyces cerevisiae (strain ATCC 204508 / S288c); pH 7; 25 °C; GdnHCl; Fluorescence; Potassium phosphate 0.1 M; reversible: yes; structure 1YCC.
For Cytochrome c isoform 1 C108A, P00044, the denaturant m value is 3.9 kcal/mol/M, the “denaturant midpoint (higher = more stable)” value (from here on “denaturant midpoint”) was 1.3 M and the unfolding free energy amounted to 5 kcal/mol.

As to “Cytochrome c isoform 1 F88S|C108A, P00044 F88S C108A”, the denaturant m value was determined as 3.8 kcal/mol/M, the “denaturant midpoint” value is 0.9 M and the unfolding free energy stood at 3.5 kcal/mol.

Consider “Cytochrome c isoform 1 N58I|C108A, P00044 N58I C108A”, for which the denaturant m value is 4.2 kcal/mol/M, the “denaturant midpoint” value was 2.1 M and the unfolding free energy amounted to 9 kcal/mol.

“Cytochrome c isoform 1 N58I|F88S|C108A, P00044 N58I F88S C108A”: the denaturant m value was 3.2 kcal/mol/M, the “denaturant midpoint” value came to 1.7 M and the unfolding free energy came out at 5.5 kcal/mol.

Turning to “Cytochrome c isoform 1 R44A|C108A, P00044 R44A C108A”, the denaturant m value turned out to be 3 kcal/mol/M, the “denaturant midpoint” value is 1.4 M and the unfolding free energy is 3.8 kcal/mol.

On to “Cytochrome c isoform 1 R44A|N58I|C108A, P00044 R44A N58I C108A”, for which the denaturant m value was 3.8 kcal/mol/M, the “denaturant midpoint” value is 2.1 M and the unfolding free energy was 8.2 kcal/mol.

Take “Cytochrome c isoform 1 R44A|N58I|F88S|C108A, P00044 R44A N58I F88S C108A”: the denaturant m value is 3.6 kcal/mol/M, the “denaturant midpoint” value was 1.7 M and the unfolding free energy came out at 6.2 kcal/mol.
